Assay results published in patent US20040151713.
Where a chain is given by its changes, count along the chain named. Numbers in names are those of the source.

B1: hCdr2 wild-type (wt) recombinant protein with c-Myc tag (protein)
chain: MSSGAKEGGGGSPAYHLPHPHPHPPQHAQYVGPYRLEKTLGKGQTGLVKLGVHCITGQKVAIKIVNREKLSESVLMKVEREIAILKLIEHPHVLKLHDVYENKKYLYLVLEHVSGGELFDYLVKKGRLTPKEARKFFRQIVVCAGLCHSYSICHRDLKPENLLLDEKNNIRIADFGMASLQVGDSLLETSCGSPHYACPEVIKGEKYDGRRADMWSCGVILFALLVGALPFDDDNLRQLLEKVKRGVFHMPHFIPPDCQSLLRGMIEVEPEKRLSLEQIQKHPWYLGGKHEPDPCLEPAPGRRVAMRSLPSNGELDPDVLESMASLGCFRDRERLHRELRSEEENQEKMIYYLLLDRKERYPSCEDQDLPPRNDVDPPRKRVDSPMLSRHGKRRPERKSMEVLSITDAGGGGSPVPTRRALEMAQHSQRSRSVSGASTGLSSSPLSSPRSPVFSFSPEPGAGDEARGGGSPTSKTQTLPGPPGSPRSSGGTPLHSPLHTPRASPTGTPGTTPPPSPGGGVGGAAWRSRLNSIRNSFLGSPRFHRRKMQVPTAEEMSSLTPESSPELAKRSWFGNFISLDKEEQIFLVLKDKPLSSIKADIVHAFLSIPSLSHSVLSQTSFRAEYKASGGPSVFQKPVRFQVDISSSEGPEPSPRRDGSGGGGIYSVTFTLISGPSRRFKRVVETIQAQLLSTHDQPSVQALADEKNGAQTRPAGAPPRSLQPPPGRPDPELSSSPRRGPPKDKKLLATNGTPLP
B2: hCdr2 K59A kinase-dead mutated protein with c-Myc tag (protein)
chain: B1 chain with K59A

Columns and labels:
[1] = biological target: T1, GST-Cdc25C (C terminal peptide: 195-260aa), P30307
T1 chain: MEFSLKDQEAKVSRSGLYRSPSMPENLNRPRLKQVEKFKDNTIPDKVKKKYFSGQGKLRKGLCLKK

[2] = biological target: GST-fusion recombinant protein containing human Weel (full-length protein), P30291
[3] = biological target: T2, GST-Cdc25B (C terminal peptide: 281-381aa), P30305
T2 chain: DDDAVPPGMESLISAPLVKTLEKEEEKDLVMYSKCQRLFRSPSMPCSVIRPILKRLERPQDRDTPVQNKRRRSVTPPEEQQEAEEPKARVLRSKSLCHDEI

[4] = biological target: GST-Cdc25B S309A [GST: P08515]
[5] = biological target: GST-Cdc25C S216A [GST: P08515]

Sequence of GST-fusion recombinant protein containing human Weel (full-length protein), P30291 (P30291 whole entry, looked up, the tested form may be a part): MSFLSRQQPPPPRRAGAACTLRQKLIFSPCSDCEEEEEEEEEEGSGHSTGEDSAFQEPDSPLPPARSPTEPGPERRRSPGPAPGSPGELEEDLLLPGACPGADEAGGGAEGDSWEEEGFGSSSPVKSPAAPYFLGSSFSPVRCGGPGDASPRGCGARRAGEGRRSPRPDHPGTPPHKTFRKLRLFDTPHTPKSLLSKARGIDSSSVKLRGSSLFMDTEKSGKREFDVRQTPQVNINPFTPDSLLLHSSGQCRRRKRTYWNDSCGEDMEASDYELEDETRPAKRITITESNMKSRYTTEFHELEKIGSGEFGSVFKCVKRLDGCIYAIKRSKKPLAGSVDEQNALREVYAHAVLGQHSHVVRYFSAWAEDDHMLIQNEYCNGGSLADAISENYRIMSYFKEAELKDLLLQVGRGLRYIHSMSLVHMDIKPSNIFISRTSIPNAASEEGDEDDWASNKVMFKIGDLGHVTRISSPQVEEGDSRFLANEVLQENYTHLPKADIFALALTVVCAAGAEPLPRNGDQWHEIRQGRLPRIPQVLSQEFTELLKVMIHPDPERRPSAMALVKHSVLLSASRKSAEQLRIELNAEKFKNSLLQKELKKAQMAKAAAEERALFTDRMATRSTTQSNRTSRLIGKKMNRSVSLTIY

Row | Protein | in vitro kinase assay (32P autoradiography) [1] | in vitro kinase assay (32P autoradiography) [2] | in vitro kinase assay (32P autoradiography) [3] | in vitro kinase assay (32P autoradiography) [4] | in vitro kinase assay (32P autoradiography) [5]
1 | B1 | the hCdr2 wt protein phosphorylated GST-Cdc25C (C terminal peptide: 195-260aa) | the human Weel could not be phosphorylated | the hCdr2 wt protein severely phosphorylated the GST-Cdc25B (C terminal peptide: 282-381aa) | When GST-Cdc25B S309A was used as a substrate, even the hCdr2 wt protein did not provide phosphorylation action | When GST-Cdc25C S216A was used as a substrate, phosphorylation of the hCdr2 wt protein did not occur
2 | B2 | but failed to phosphorylate the hCdr2 K59A protein | – | the weak phosphorylating action exhibited by the mock and hCdr2 K59A | – | –
